Test system: [H][C@@]12COP(=O)(O)O[C@@]1([H])[C@@H](O)[C@H](n1cnc3c(=O)[nH]c(N)nc31)O2
Test: [3H]-cGMP hydrolysis, snake venom nucleotidase, anion-exchange separation
Assay type: biochemical, Homo sapiens
Conditions: [3H]-cGMP mixed with unlabelled cGMP […], […] MgCl2, pH […]

## PDE5A1 (Homo sapiens)
  Km: 1.7 ± 0.4 µM

— PMC5434896, “Inhibition of PDE5A1 guanosine cyclic monophosphate (cGMP) hydrolysing activity by sildenafil analogues that inhibit cellular cGMP efflux” (The Journal of Pharmacy and Pharmacology, 2017)
